Assays:
Format in all cases: biochemical
CT390 [1] = molecular target: T1, CT390 (Chlamydia trachomatis serovar D, UniProt O84395); assay: Quantitative reverse assay of pure CT390; settings: reverse assay, saturating substrates
T1 construct: His-Tag (N); made in house; host or cells: E. coli

CT390 [2] = molecular target: T1, CT390; assay: Quantitative forward assay of pure CT390; settings: saturating substrates
Protocol: All enzyme assays were carried out essentially as described in Example I. Incubation temperature was 30° C. Kinetic constants were determined by varying substrate concentrations while keeping the co-substrate level constant at the concentration described below. Kinetic data were analyzed by non-linear regression analysis using GraphPad Prizm Version 4.03.
Quantitative assay of the physiologically forward reaction was carried out sequentially in a pre-reaction to generate THDP from m-DAP followed by an LL-DAP aminotransferase assay. […] The pre-reaction was run to completion, monitored by the increase in absorbance at 340 nm resulting from NADPH formation. The aminotransferase reaction was monitored at 398 nm to measure the formation of thioNADH. […] Subsequently, the aminotransferase assay was initiated by addition of CT390, bringing the total reaction volume to 1 mL.

[3] = molecular target: T2, Arabidopsis LL-DAP-AT (At4g33680) (Arabidopsis thaliana, UniProt Q93ZN9); assay: Quantitative reverse assay coupled to Ddh, pure recombinant LL-DAP-AT; settings: 30° C.
T2 construct: The recombinant protein lacks the first 39 amino acids of the At4g33680 protein; hexa-His (N); S-TAG (N); made in house; host or cells: E. coli BL21-CodonPlus-RIPL
Protocol: (§1) For enzyme assays of crude proteins, extracts were prepared by grinding tissue in liquid nitrogen with 100 mM HEPESKOH (pH 7.6), followed by centrifugation at 10,000 g for 15 min, and then buffer exchange using an Amicon Ultra 30,000 MWCO filter. […] Reactions were incubated at 30° C. and the ΔA (440 nm) measured continuously. […] The reaction was incubated at 30° C., and the decrease in A340 was measured. […] The reaction was run to completion, determined by monitoring the increase in A340.
For this reason quantitative coupled assays were developed to assess the enzyme activity in both the reverse and forward directions. […] The reaction sequence is shown in Scheme 1.

[4] = molecular target: T2, Arabidopsis LL-DAP-AT (At4g33680); assay: Quantitative forward assay coupled to 2-OG dehydrogenase, pure recombinant LL-DAP-AT; settings: for Vmax: forward assay; for Forward (biosynthetic) activity disfavored compared with the reverse activity: initial rate, forward versus reverse
Protocol: FIG. 4. […] The forward assay was conducted in two steps. […] The aminotransferase was assayed in the second step.
as §1, with “A340. […] The kinetic constants were calculated by nonlinear regression analysis using GraphPad Prizm version 4.03.” for “A340.”
The overall reaction series is shown in Scheme 2.
Thio-NADH has an absorbance maximum at 398 nm, which can be discerned from NADPH, which has an absorbance maximum at 340 nm. FIG. 4 illustrates such a reaction. […] Two plots are shown using 0.55 and 0.055 mM m-DAP.

LL-DAP transaminase [5] = assay: Quantitative forward assay of purified microbial LL-DAP transaminases
Protocol: (§2) Enzyme assays were performed as described above in Examples I and II.
(§3) The catalytic properties of sll0480, BF2643, Dhaf—3980, MTH52, and SfumDRAFT0821 were studied in greater detail using purified enzymes to determine their kinetic constants using quantitative forward and reverse assays.

LL-DAP transaminase [6] = assay: Quantitative reverse assay of purified microbial LL-DAP transaminases; settings: reverse
Protocol: as §2, §3

LL-DAP-AT (At4g33680) = molecular target: T3, LL-DAP-AT (At4g33680) (Arabidopsis thaliana, UniProt Q93ZN9); assay: Reverse OAB assay of pure recombinant LL-DAP-AT, temperature and pH optimum; settings: data not shown
T3 construct: The recombinant protein lacks the first 39 amino acids of the At4g33680 protein; hexa-His (N); S-TAG (N); made in house; host or cells: E. coli BL21-CodonPlus-RIPL
Protocol: as §1, with “A340. […] The kinetic constants were calculated by nonlinear regression analysis using GraphPad Prizm version 4.03.” for “A340.”
The kinetic properties of the pure recombinant At4g33680 enzyme were studied using several different assays. […] Most aminotransferases require pyridoxal phosphate as a cofactor (Liepman and Olsen, 2004). The Lys residue at position 305 in the At4g33680 protein is predicted to be the pyridoxal phosphate ligand. […] The enzyme was also found to show a temperature optimum of 36° C. and a pH optimum of 7.6 when HEPESKOH buffer was used, and 7.9 when Tris HCl buffer was used (data not shown).

B1: CT390: LL-DAP aminotransferase encoded by ct390 of Chlamydia trachomatis (SEQ ID NO: 9), His-Tag fusion (protein, listed as Chlamydia trachomatis)
chain: MKRNPHFVSLTKNYLFADLQKRVAQFRLENPQHTVINLSIGDTTQPLNASVAEAFASSIARLSSPTTCRGYGPDFGLPALRQKLSEDFYRGFVDAKEIFISDGAKVDLFRLLSFFGPNQTVAIQDPSYPAYLDIARLTGAKEIIALPCLQENAFFPEFPEDTHIDILCLCSPNNPTGTVLNKDQLRAIVHYAIEHEILILFDAAYSTFISDPSLPKSIFEIPDARFCAIEINSFSKPLGFAGIRLGWTVIPQELTYADGHFVIQDWERFLSTTFNGASIPAQEAGVAGLSILPQLEAIHYYRENSDLLRKALLATGFEVFGGEHAPYLWVKPTQANISDRDLFDFFLREYHIAITPGIGFGRSGSGFVRFSSLGKREDILAACERLQMAPALQS
modifications: His-Tag
- Vmax (CT390 [1]): 0.59 μmol min^−1mg proteins^−1
- Vmax (CT390 [2]): 0.38 μmol min^−1mg proteins^−1

B2: Arabidopsis LL-DAP-AT: LL-DAP aminotransferase encoded by Arabidopsis locus At4g33680 (SEQ ID NO: 7), recombinant protein (protein, listed as Arabidopsis thaliana)
chain: MSSTHQLVSSMISSSSSTFLAPSNFNLRTRNACLPMAKRVNTCKCVATPQEKIEYKTKVSRNSNMSKLQAGYLFPEIARRRSAHLLKYPDAQVISLGIGDTTEPIPEVITSAMAKKAHELSTIEGYSGYGAEQGAKPLRAAIAKTFYGGLGIGDDDVFVSDGAKCDISRLQVMFGSNVTIAVQDPSYPAYVDSSVIMGQTGQFNTDVQKYGNIEYMRCTPENGFFPDLSTVGRTDIIFFCSPNNPTGAAATREQLTQLVEFAKKNGSIIVYDSAYAMYMSDDNPRSIFEIPGAEEVAMETASFSKYAGFTGVRLGWTVIPKKLLYSDGFPVAKDFNRIICTCFNGASNISQAGALACLTPEGLEAMHKVIGFYKENTNIIIDTFTSLGYDVYGGKNAPYVWVHFPNQSSWDVFAEILEKTHVVTTPGSGFGPGGEGFVRVSAFGHRENILEACRRFKQLYK
- Vmax ([3]; pH 7.5): 22.3 ± 0.3 μmol min^−1 mg^−1 protein
- Vmax ([3]; pH 7.5, listed as LL-DAP-AT): 22.3 μmol min^−1 mg^−1 protein
- Vmax [4]: 0.38 ± 0.01 μmol min^−1 mg^−1 protein
- Vmax ([4]; listed as LL-DAP-AT): 0.38 μmol min^−1 mg^−1 protein
- Forward (biosynthetic) activity disfavored compared with the reverse activity [4]: 50 fold
- Forward (biosynthetic) activity disfavored compared with the reverse activity ([4]; listed as A. thaliana enzyme): approximately 60 fold
- Vmax F (LL-DAP transaminase [5]): 0.8 µmol/min/mg
- Vmax R (LL-DAP transaminase [6]): 12 µmol/min/mg
- pH optimum (LL-DAP-AT (At4g33680); HEPESKOH buffer): 7.6
- pH optimum (LL-DAP-AT (At4g33680); Tris HCl buffer): 7.9
- Temperature optimum (LL-DAP-AT (At4g33680)): 36 °C

Reference: US20090158455A1, “COMPOSITIONS AND METHODS FOR MODULATING LYSINE PRODUCTION” (priority 2005, published 2009)
